Results as given in the RNAGym collection of RNA variant scans (doi:10.1021/acssynbio.7b00057).

B1: Pistol ribozyme (parent)
chain: GGGUCGUUGUUCCAUAAUCGCGUGGAUAUGGCACGCAAGUUUCUACCGGGCACCGUAAAUGUCCGACUGGAGCCGUUCGGGCGGCUAUAAACAGACCUCAGGCCCGAAGCGUGGCGGCACCUGCCGCCGGUGGUAAAAAAGAUCGGAAGAGCACACGUCU

Variants of: B1
Experiment: aptazyme ON/OFF ratio, guanine; higher = stronger switching; co-transcriptional cleavage with and without guanine

Variant | aptazyme ON/OFF ratio
GGGUCGUUUCUAGAUAAUCGCGUGGAUAUGGCACGCAAGUUUCUACCGGGCACCGUAAAUGUCCGACUGGAGCCGUUCGGGCGGCUAUAAACAGACCUCAGGCCCGAAGCGUGGCGGCACCUGCCGCCGGUGGUAAAAAAGAUCGGAAGAGCACACGUCU [G9U U10C C12A C13G] | 1.61
GGGUCGGCAUUUAAUAAUCGCGUGGAUAUGGCACGCAAGUUUCUACCGGGCACCGUAAAUGUCCGACUGGAGCCGUUCGGGCGGCUAUAAACAGACCUCAGGCCCGAAGCGUGGCGGCACCUGCCGCCGGUGGUAAAAAAGAUCGGAAGAGCACACGUCU [U7G U8C G9A C12U C13A] | 1.03
GGGUCGCCACCAGAUAAUCGCGUGGAUAUGGCACGCAAGUUUCUACCGGGCACCGUAAAUGUCCGACUGGAGCCGUUCGGGCGGCUAUAAACAGACCUCAGGCCCGAAGCGUGGCGGCACCUGCCGCCGGUGGUAAAAAAGAUCGGAAGAGCACACGUCU [U7C U8C G9A U10C U11C C12A C13G] | 1.17
GGGUCGGGGCAGUAUAAUCGCGUGGAUAUGGCACGCAAGUUUCUACCGGGCACCGUAAAUGUCCGACUGGAGCCGUUCGGGCGGCUAUAAACAGACCUCAGGCCCGAAGCGUGGCGGCACCUGCCGCCGGUGGUAAAAAAGAUCGGAAGAGCACACGUCU [U7G U8G U10C U11A C12G C13U] | 1.27
GGGUCGCUUCUUAAUAAUCGCGUGGAUAUGGCACGCAAGUUUCUACCGGGCACCGUAAAUGUCCGACUGGAGCCGUUCGGGCGGCUAUAAACAGACCUCAGGCCCGAAGCGUGGCGGCACCUGCCGCCGGUGGUAAAAAAGAUCGGAAGAGCACACGUCU [U7C G9U U10C C12U C13A] | 1.08
GGGUCGAGAACCUAUAAUCGCGUGGAUAUGGCACGCAAGUUUCUACCGGGCACCGUAAAUGUCCGACUGGAGCCGUUCGGGCGGCUAUAAACAGACCUCAGGCCCGAAGCGUGGCGGCACCUGCCGCCGGUGGUAAAAAAGAUCGGAAGAGCACACGUCU [U7A U8G G9A U10A U11C C13U] | 1.04
GGGUCGCCCCUGUAUAAUCGCGUGGAUAUGGCACGCAAGUUUCUACCGGGCACCGUAAAUGUCCGACUGGAGCCGUUCGGGCGGCUAUAAACAGACCUCAGGCCCGAAGCGUGGCGGCACCUGCCGCCGGUGGUAAAAAAGAUCGGAAGAGCACACGUCU [U7C U8C G9C U10C C12G C13U] | 1.04
GGGUCGCACAACAAUAAUCGCGUGGAUAUGGCACGCAAGUUUCUACCGGGCACCGUAAAUGUCCGACUGGAGCCGUUCGGGCGGCUAUAAACAGACCUCAGGCCCGAAGCGUGGCGGCACCUGCCGCCGGUGGUAAAAAAGAUCGGAAGAGCACACGUCU [U7C U8A G9C U10A U11A C13A] | 1.2
GGGUCGGACCAUGAUAAUCGCGUGGAUAUGGCACGCAAGUUUCUACCGGGCACCGUAAAUGUCCGACUGGAGCCGUUCGGGCGGCUAUAAACAGACCUCAGGCCCGAAGCGUGGCGGCACCUGCCGCCGGUGGUAAAAAAGAUCGGAAGAGCACACGUCU [U7G U8A G9C U10C U11A C12U C13G] | 1.04
GGGUCGGUAUGUCAUAAUCGCGUGGAUAUGGCACGCAAGUUUCUACCGGGCACCGUAAAUGUCCGACUGGAGCCGUUCGGGCGGCUAUAAACAGACCUCAGGCCCGAAGCGUGGCGGCACCUGCCGCCGGUGGUAAAAAAGAUCGGAAGAGCACACGUCU [U7G G9A U11G C12U] | 1.3
GGGUCGAGCUGAGAUAAUCGCGUGGAUAUGGCACGCAAGUUUCUACCGGGCACCGUAAAUGUCCGACUGGAGCCGUUCGGGCGGCUAUAAACAGACCUCAGGCCCGAAGCGUGGCGGCACCUGCCGCCGGUGGUAAAAAAGAUCGGAAGAGCACACGUCU [U7A U8G G9C U11G C12A C13G] | 1.26
GGGUCGGUGUAACAUAAUCGCGUGGAUAUGGCACGCAAGUUUCUACCGGGCACCGUAAAUGUCCGACUGGAGCCGUUCGGGCGGCUAUAAACAGACCUCAGGCCCGAAGCGUGGCGGCACCUGCCGCCGGUGGUAAAAAAGAUCGGAAGAGCACACGUCU [U7G U11A C12A] | 1.16
GGGUCGAAGGGUGAUAAUCGCGUGGAUAUGGCACGCAAGUUUCUACCGGGCACCGUAAAUGUCCGACUGGAGCCGUUCGGGCGGCUAUAAACAGACCUCAGGCCCGAAGCGUGGCGGCACCUGCCGCCGGUGGUAAAAAAGAUCGGAAGAGCACACGUCU [U7A U8A U10G U11G C12U C13G] | 1.26
GGGUCGCCUUUGAAUAAUCGCGUGGAUAUGGCACGCAAGUUUCUACCGGGCACCGUAAAUGUCCGACUGGAGCCGUUCGGGCGGCUAUAAACAGACCUCAGGCCCGAAGCGUGGCGGCACCUGCCGCCGGUGGUAAAAAAGAUCGGAAGAGCACACGUCU [U7C U8C G9U C12G C13A] | 1.21
GGGUCGAACACCUAUAAUCGCGUGGAUAUGGCACGCAAGUUUCUACCGGGCACCGUAAAUGUCCGACUGGAGCCGUUCGGGCGGCUAUAAACAGACCUCAGGCCCGAAGCGUGGCGGCACCUGCCGCCGGUGGUAAAAAAGAUCGGAAGAGCACACGUCU [U7A U8A G9C U10A U11C C13U] | 1.04
GGGUCGCUCCUAAAUAAUCGCGUGGAUAUGGCACGCAAGUUUCUACCGGGCACCGUAAAUGUCCGACUGGAGCCGUUCGGGCGGCUAUAAACAGACCUCAGGCCCGAAGCGUGGCGGCACCUGCCGCCGGUGGUAAAAAAGAUCGGAAGAGCACACGUCU [U7C G9C U10C C12A C13A] | 1.06
GGGUCGUAGAAGGAUAAUCGCGUGGAUAUGGCACGCAAGUUUCUACCGGGCACCGUAAAUGUCCGACUGGAGCCGUUCGGGCGGCUAUAAACAGACCUCAGGCCCGAAGCGUGGCGGCACCUGCCGCCGGUGGUAAAAAAGAUCGGAAGAGCACACGUCU [U8A U10A U11A C12G C13G] | 1.18
GGGUCGUCUUCGUAUAAUCGCGUGGAUAUGGCACGCAAGUUUCUACCGGGCACCGUAAAUGUCCGACUGGAGCCGUUCGGGCGGCUAUAAACAGACCUCAGGCCCGAAGCGUGGCGGCACCUGCCGCCGGUGGUAAAAAAGAUCGGAAGAGCACACGUCU [U8C G9U U11C C12G C13U] | 1.15
